For eight substances, other: % change in AraTM fluorescence/absorbance from WT (% change from WT) results are on record in PMC4286236.

Experiment in all cases: AraTM assay
The target in experiment [1] is Danio rerio PlxnA3 TM + JM (amino acids 1241-1314) D1302Y, AraTM construct (EP-PCR mutant). To be noted: E. coli membranes; four replicates; read off a plot.
The target in experiment [2] is Danio rerio PlxnA3 TM + JM (amino acids 1241-1314) L1274A, AraTM construct. To be noted: E. coli membranes; minimum of eleven replicates over three experiments; read off a plot.
In experiment [3] the target is Danio rerio PlxnA3 TM + JM (amino acids 1241-1314) L1277F, AraTM construct. To be noted: E. coli membranes; minimum of eleven replicates over three experiments; read off a plot.
For experiment [4], the target named is Danio rerio PlxnA3 TM + JM (amino acids 1241-1314) L1284A, AraTM construct. To be noted: E. coli membranes; minimum of eleven replicates over three experiments; read off a plot.
For experiment [5], the target named is Danio rerio PlxnA3 TM + JM (amino acids 1241-1314) M1281F, AraTM construct. To be noted: E. coli membranes; minimum of eleven replicates over three experiments; read off a plot.
Experiment [6] concerns the target Danio rerio PlxnA3 TM + JM (amino acids 1241-1314) M1281L, AraTM construct. To be noted: E. coli membranes; minimum of eleven replicates over three experiments; read off a plot.
In experiment [7] the target is Danio rerio PlxnA3 TM + JM (amino acids 1241-1314) M1281T, AraTM construct. To be noted: E. coli membranes; minimum of eleven replicates over three experiments; read off a plot.
Experiment [8] concerns the target Danio rerio PlxnA3 TM + JM (amino acids 1241-1314) V1288F, AraTM construct (EP-PCR mutant). To be noted: E. coli membranes; four replicates; read off a plot.

With “Danio rerio PlxnA3 TM + JM (amino acids 1241-1314), wild type, AraTM construct D1302Y”, in experiment [1], the other: % change in AraTM fluorescence/absorbance from WT (% change from WT) was 85. Regarding “Danio rerio PlxnA3 TM + JM (amino acids 1241-1314), wild type, AraTM construct L1274A”, in experiment [2], the other: % change in AraTM fluorescence/absorbance from WT (% change from WT) was -1. Regarding “Danio rerio PlxnA3 TM + JM (amino acids 1241-1314), wild type, AraTM construct L1277F”, the other: % change in AraTM fluorescence/absorbance from WT (% change from WT) in experiment [3] is -2.3.

For the substance “Danio rerio PlxnA3 TM + JM (amino acids 1241-1314), wild type, AraTM construct L1284A”, the other: % change in AraTM fluorescence/absorbance from WT (% change from WT) in experiment [4] was -7.6. “Danio rerio PlxnA3 TM + JM (amino acids 1241-1314), wild type, AraTM construct M1281F”: in experiment [5], the other: % change in AraTM fluorescence/absorbance from WT (% change from WT) is -7.2. Consider “Danio rerio PlxnA3 TM + JM (amino acids 1241-1314), wild type, AraTM construct M1281L”, for which, in experiment [6], the other: % change in AraTM fluorescence/absorbance from WT (% change from WT) is 23. With “Danio rerio PlxnA3 TM + JM (amino acids 1241-1314), wild type, AraTM construct M1281T”, in experiment [7], the other: % change in AraTM fluorescence/absorbance from WT (% change from WT) was -12.

“Danio rerio PlxnA3 TM + JM (amino acids 1241-1314), wild type, AraTM construct V1288F”: in experiment [8], the other: % change in AraTM fluorescence/absorbance from WT (% change from WT) worked out at 25.
